Assay results published in paper PMC3733929, “Analysis of Mutations in Neurospora crassa ERMES Components Reveals Specific Functions Related to β-Barrel Protein Assembly and Maintenance of Mitochondrial Morphology” (PLoS ONE, 2013).

Target: the molecule itself
Assay: non-reducing SDS-PAGE and Western blot; isolated mitochondria dissolved in cracking buffer (0.06 M Tris-HCl pH 6.8, 2.5% SDS, 5% sucrose) without β-mercaptoethanol; anti-HA blot; disulphide-bonded form at about 100 kDa

B1: Mmm1-HA (N. crassa Mmm1 with a C-terminal triple hemaglutinin epitope tag) (natural protein, Neurospora crassa, UniProt Q9P353 1-415, looked up)
chain: MADICPSRSEPTLSFTQGLILGQLSVVLLLAAFIKFFIFGDPPSPEVVASIRATDRRSRTLAHKKSILSLRETNALQLVQNPALNKKHVLRPGPPILTIGSILSKTYYKVDSHQPESLDWFNVLIAQTIAQFRSDAQHDDAILSSLSKALNGTARPDFLDEIKVTELSLGEDFPIFSNCRIIPVDEDGLSFGTGKAFDANMATREGARLQARMDVDLSDMITLAVETKLLLNYPKRLSAVLPVALAVSVVRFSGTLSISFIPSNPSNNEPAKMIFTFLDDYRLDFSIRSLLGSRSRLQDVPKIAQLVESRLHRWFDERCVEPRFQEIALPNMWPRKKNTRGGDETISDVERSMSKAKGVDIAKDVREEARKEIEAEAHGGADRVPDSLRYRHRPRADEEFPGAGSMPGSMPGSMP
notes: Mmm1, Neurospora crassa; also called HA-tagged Mmm1; Mmm1-HA3; source: N. crassa Δmmm1 transformed with pMmm1-HA (endogenous mmm1 promoter; strains Mmm1-HA3, Mmm1-HA5, Mmm1-HA8), in isolated mitochondria or post mitochondrial pellet; not shown: 3xHA, C-terminal, kept
B1 was tested, and the “stoichiometry N” value was 2.
